Measured values taken from IntAct's records for PubMed 31570497.

B1: Envelopment polyprotein (Uukuniemi virus (strain S23)), P09613 (parent)
chain: MVRTYLLLLLLCGPATPFFNHLMDVTRRLLDSSNATWQRDQPDTHRLSRLDAHVMSMLGVGSHIDEVSVNHSQHLHNFRSYNCEEGRRTLTMMDPKSGKFKRLKCNENQTLSKDCASCIEKKSSIMKSEHLVYDDAICQSDYSSPEAMPDHETHLCRIGPLHIQHCTHEAKRVQHVSWFWIDGKLRVYDDFSVSWTEGKFLSLFDCLNETSKDHNCNKAVCLEGRCSGDLQFCTEFTCSYAKADCNCKRNQVSGVAVVHTKHGSFMPECMGQSLWSVRKPLSKRSVTVQQPCMDCESDCKVDHILVIVRHFYPDHYQACLGSTCLTGRAKDKEFKIPFKMADRLSDSHFEIRIWDKERSNEYFLESRCESVDACAAITCWFCRANWANIHCFSKEQVLILVAVSSLCILLLASVLRALKVIATFTWKIIKPFWWILSLLCRTCSKRLNKRAERLKESIHSLEEGLNNVDEGPREQNNPARAVARPNVRQKMFNLTRLSPVVVGMLCLACPVESCSDSISVTASSQRCSTSSDGVNSCFVSTSSLLQVSPKGQESCLILKGPTGTAVDSIRIKTTDIKLECVRRDLYWVPRVTHRCIGTRRCHLMGACKGEACSEFKINDYSPEWGHEEELMAQLGWSYCVEQCGGALCQCFNMRPSCFYLRKTFSHLSQDAFNIYECSEWSYRINVLVSTNSTHSNLTLKLGVPDSIPHGLISLSSVSQPPAIAYSECFGEDLHGTKFHTVCNRRTDYTLGRIGEIQCPTKADALAVSKRCISSDSIIFSKVHKDSVDCQSSIIDPMTIRNRNKLPSTVGSVTFWPTETSVEAAIPDLASATMLIRLDGYTIQFRSDSNKCSPRFLSLSGCYNCEAGAKLELEHVTDFGTALGILECPSLGYTTYYEVKNTLEKSIRTMHLNGSHVEAKCYFRCPNSESQLTIRGELIYLFNDDIRHHNQTLSPGLSPKSGSGWDPFGWFKASWLRAIWAILGGTVSLIIGVVIIYMVFTLCLKVKKS

Variants of: B1
Settings: with gbf1_human GBF1, Q92538
Sequence of gbf1_human GBF1, Q92538 (Q92538 whole entry): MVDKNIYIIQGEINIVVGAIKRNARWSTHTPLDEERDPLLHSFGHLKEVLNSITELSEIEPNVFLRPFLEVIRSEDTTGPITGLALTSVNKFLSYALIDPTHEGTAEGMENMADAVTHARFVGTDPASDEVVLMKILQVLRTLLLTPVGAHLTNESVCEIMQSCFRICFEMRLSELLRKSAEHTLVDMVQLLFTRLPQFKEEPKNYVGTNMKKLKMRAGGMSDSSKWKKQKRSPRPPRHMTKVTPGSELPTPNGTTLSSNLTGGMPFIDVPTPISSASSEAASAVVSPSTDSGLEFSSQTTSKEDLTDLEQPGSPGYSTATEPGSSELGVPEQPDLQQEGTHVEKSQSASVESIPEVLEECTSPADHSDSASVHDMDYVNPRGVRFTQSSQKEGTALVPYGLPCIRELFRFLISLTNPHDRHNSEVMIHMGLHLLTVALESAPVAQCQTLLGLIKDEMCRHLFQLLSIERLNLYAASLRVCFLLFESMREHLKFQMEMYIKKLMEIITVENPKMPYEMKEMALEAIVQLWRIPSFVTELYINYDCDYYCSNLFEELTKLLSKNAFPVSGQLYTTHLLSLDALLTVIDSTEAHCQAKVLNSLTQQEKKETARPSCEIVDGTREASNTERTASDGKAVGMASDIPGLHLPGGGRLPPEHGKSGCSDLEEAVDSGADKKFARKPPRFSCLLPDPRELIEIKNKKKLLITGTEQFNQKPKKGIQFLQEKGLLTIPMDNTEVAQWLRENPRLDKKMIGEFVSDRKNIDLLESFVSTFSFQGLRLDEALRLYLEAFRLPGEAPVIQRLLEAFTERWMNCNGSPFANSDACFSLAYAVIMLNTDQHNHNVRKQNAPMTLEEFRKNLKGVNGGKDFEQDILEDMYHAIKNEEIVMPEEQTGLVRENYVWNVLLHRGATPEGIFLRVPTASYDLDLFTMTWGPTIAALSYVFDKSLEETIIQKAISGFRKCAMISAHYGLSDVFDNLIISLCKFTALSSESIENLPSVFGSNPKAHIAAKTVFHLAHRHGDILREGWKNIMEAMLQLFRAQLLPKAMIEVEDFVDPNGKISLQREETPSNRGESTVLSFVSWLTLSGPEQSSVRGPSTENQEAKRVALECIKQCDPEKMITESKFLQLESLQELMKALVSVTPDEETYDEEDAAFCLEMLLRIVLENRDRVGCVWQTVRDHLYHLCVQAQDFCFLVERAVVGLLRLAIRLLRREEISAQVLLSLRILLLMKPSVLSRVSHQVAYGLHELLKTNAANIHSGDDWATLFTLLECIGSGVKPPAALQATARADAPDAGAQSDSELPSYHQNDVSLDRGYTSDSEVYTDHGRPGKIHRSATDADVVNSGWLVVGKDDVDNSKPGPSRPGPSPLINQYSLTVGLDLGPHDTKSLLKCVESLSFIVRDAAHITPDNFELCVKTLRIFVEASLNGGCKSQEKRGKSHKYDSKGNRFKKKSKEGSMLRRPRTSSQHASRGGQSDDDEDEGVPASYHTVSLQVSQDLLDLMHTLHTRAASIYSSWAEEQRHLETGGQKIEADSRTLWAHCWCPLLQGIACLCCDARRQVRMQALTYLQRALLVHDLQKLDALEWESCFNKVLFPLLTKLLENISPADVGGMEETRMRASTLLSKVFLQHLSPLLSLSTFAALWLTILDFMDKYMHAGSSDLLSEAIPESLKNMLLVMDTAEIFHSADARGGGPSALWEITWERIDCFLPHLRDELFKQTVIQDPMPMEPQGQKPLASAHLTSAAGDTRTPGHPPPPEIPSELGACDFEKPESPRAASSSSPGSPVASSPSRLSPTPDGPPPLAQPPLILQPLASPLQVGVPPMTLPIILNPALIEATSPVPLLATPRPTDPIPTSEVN

Row | Variant | effect of a mutation on the interaction
1 | L461A;E462A;E463A;G464A;L465A | with no effect
2 | L438A;L439A | with no effect
